Laboratory results as given in patent US20110212097A1.

Legend:
[1] = target: SOD1 oxidized with H2O2 (Homo sapiens (Human)) (UniProt P00441); experiment: ELISA rep1; 100 uM H2O2
[2] = target: SOD1 oxidized with a mixture of ascorbate and copperchloride (Homo sapiens (Human)) (UniProt P00441); experiment: ELISA rep1; 6 hr CuCl
BSA control in PBS [3] = target: BSA control in PBS (UniProt P02769); experiment: ELISA mean; BSA-PBS
[4] = target: SOD1 oxidized with a mixture of ascorbate and copperchloride (Homo sapiens (Human)) (UniProt P00441); experiment: ELISA rep3; 0 hr CuCl
[5] = target: SOD1 oxidized with H2O2 (Homo sapiens (Human)) (UniProt P00441); experiment: ELISA rep1; 10 mM H2O2
[6] = target: SOD1 oxidized with a mixture of ascorbate and copperchloride (Homo sapiens (Human)) (UniProt P00441); experiment: ELISA rep3; 6 hr CuCl
BSA control in PBS [7] = target: BSA control in PBS (UniProt P02769); experiment: ELISA rep3; BSA-PBS
[8] = target: denatured or misfolded SOD1 (SOD1 in denaturation buffer with 6M GdnHCl) (Homo sapiens (Human)) (UniProt P00441); experiment: ELISA rep2; SOD-Gnd
[9] = target: natively folded SOD1 (SOD1 in PBS) (Homo sapiens (Human)) (UniProt P00441); experiment: ELISA rep2; SOD-PBS
BSA control in PBS [10] = target: BSA control in PBS (UniProt P02769); experiment: ELISA rep2; BSA-PBS
[11] = target: SOD1 oxidized with a mixture of ascorbate and copperchloride (Homo sapiens (Human)) (UniProt P00441); experiment: ELISA mean; 6 hr CuCl
[12] = target: denatured or misfolded SOD1 (SOD1 in denaturation buffer with 6M GdnHCl) (Homo sapiens (Human)) (UniProt P00441); experiment: ELISA mean; SOD-Gnd
[13] = target: SOD1 oxidized with a mixture of ascorbate and copperchloride (Homo sapiens (Human)) (UniProt P00441); experiment: ELISA rep1; 0 hr CuCl
[14] = target: SOD1 oxidized with H2O2 (Homo sapiens (Human)) (UniProt P00441); experiment: ELISA rep3; 1 mM H2O2
[15] = target: SOD1 oxidized with a mixture of ascorbate and copperchloride (Homo sapiens (Human)) (UniProt P00441); experiment: ELISA rep2; 6 hr CuCl
[16] = target: SOD1 oxidized with a mixture of ascorbate and copperchloride (Homo sapiens (Human)) (UniProt P00441); experiment: ELISA rep2; 0 hr CuCl
[17] = target: SOD1 oxidized with H2O2 (Homo sapiens (Human)) (UniProt P00441); experiment: ELISA rep2; 10 mM H2O2
[18] = target: SOD1 oxidized with a mixture of ascorbate and copperchloride (Homo sapiens (Human)) (UniProt P00441); experiment: ELISA mean; 0 hr CuCl
[19] = target: natively folded SOD1 (SOD1 in PBS) (Homo sapiens (Human)) (UniProt P00441); experiment: ELISA rep1; SOD-PBS
[20] = target: denatured or misfolded SOD1 (SOD1 in denaturation buffer with 6M GdnHCl) (Homo sapiens (Human)) (UniProt P00441); experiment: ELISA rep3; SOD-Gnd
[21] = target: SOD1 oxidized with a mixture of ascorbate and copperchloride (Homo sapiens (Human)) (UniProt P00441); experiment: ELISA rep1; 3 hr CuCl
[22] = target: SOD1 oxidized with H2O2 (Homo sapiens (Human)) (UniProt P00441); experiment: ELISA rep1; 1 mM H2O2
[23] = target: SOD1 oxidized with H2O2 (Homo sapiens (Human)) (UniProt P00441); experiment: ELISA mean; 10 mM H2O2
[24] = target: SOD1 oxidized with a mixture of ascorbate and copperchloride (Homo sapiens (Human)) (UniProt P00441); experiment: ELISA mean; 1 hr CuCl
[25] = target: SOD1 oxidized with H2O2 (Homo sapiens (Human)) (UniProt P00441); experiment: ELISA rep3; 10 mM H2O2
[26] = target: SOD1 oxidized with H2O2 (Homo sapiens (Human)) (UniProt P00441); experiment: ELISA mean; 100 uM H2O2
[27] = target: SOD1 oxidized with H2O2 (Homo sapiens (Human)) (UniProt P00441); experiment: ELISA rep3; 100 uM H2O2
[28] = target: SOD1 oxidized with a mixture of ascorbate and copperchloride (Homo sapiens (Human)) (UniProt P00441); experiment: ELISA rep2; 1 hr CuCl
[29] = target: SOD1 oxidized with a mixture of ascorbate and copperchloride (Homo sapiens (Human)) (UniProt P00441); experiment: ELISA rep3; 3 hr CuCl
[30] = target: SOD1 oxidized with a mixture of ascorbate and copperchloride (Homo sapiens (Human)) (UniProt P00441); experiment: ELISA rep3; 1 hr CuCl
[31] = target: SOD1 oxidized with H2O2 (Homo sapiens (Human)) (UniProt P00441); experiment: ELISA rep2; 1 mM H2O2
[32] = target: natively folded SOD1 (SOD1 in PBS) (Homo sapiens (Human)) (UniProt P00441); experiment: ELISA mean; SOD-PBS
[33] = target: SOD1 oxidized with H2O2 (Homo sapiens (Human)) (UniProt P00441); experiment: ELISA mean; 1 mM H2O2
BSA control in PBS [34] = target: BSA control in PBS (UniProt P02769); experiment: ELISA rep1; BSA-PBS
[35] = target: SOD1 oxidized with H2O2 (Homo sapiens (Human)) (UniProt P00441); experiment: ELISA rep2; 100 uM H2O2
[36] = target: natively folded SOD1 (SOD1 in PBS) (Homo sapiens (Human)) (UniProt P00441); experiment: ELISA rep3; SOD-PBS
[37] = target: SOD1 oxidized with a mixture of ascorbate and copperchloride (Homo sapiens (Human)) (UniProt P00441); experiment: ELISA rep2; 3 hr CuCl
[38] = target: denatured or misfolded SOD1 (SOD1 in denaturation buffer with 6M GdnHCl) (Homo sapiens (Human)) (UniProt P00441); experiment: ELISA rep1; SOD-Gnd
[39] = target: SOD1 oxidized with a mixture of ascorbate and copperchloride (Homo sapiens (Human)) (UniProt P00441); experiment: ELISA mean; 3 hr CuCl
[40] = target: SOD1 oxidized with a mixture of ascorbate and copperchloride (Homo sapiens (Human)) (UniProt P00441); experiment: ELISA rep1; 1 hr CuCl
[41] = target: human transferrin (human) (UniProt P02787); experiment: indirect ELISA, control antigen
[42] = target: denatured or misfolded SOD1 (SOD1 in denaturation buffer with 6M GdnHCl) (Homo sapiens (Human)) (UniProt P00441); experiment: ELISA rep2
BSA control in PBS [43] = target: BSA control in PBS (UniProt P02769); experiment: ELISA rep2
BSA control in GdnHCl [44] = target: BSA control in GdnHCl (UniProt P02769); experiment: ELISA rep2
[45] = target: natively folded SOD1 (SOD1 in PBS) (Homo sapiens (Human)) (UniProt P00441); experiment: ELISA rep2
[46] = target: denatured or misfolded SOD1 (SOD1 in denaturation buffer with 6M GdnHCl) (Homo sapiens (Human)) (UniProt P00441); experiment: ELISA, SOD1 minus BSA
[47] = target: natively folded SOD1 (SOD1 in PBS) (Homo sapiens (Human)) (UniProt P00441); experiment: ELISA, SOD1 minus BSA
[48] = target: denatured or misfolded SOD1 (SOD1 in denaturation buffer with 6M GdnHCl) (Homo sapiens (Human)) (UniProt P00441); experiment: ELISA mean
BSA control in PBS [49] = target: BSA control in PBS (UniProt P02769); experiment: ELISA mean
BSA control in GdnHCl [50] = target: BSA control in GdnHCl (UniProt P02769); experiment: ELISA mean
[51] = target: natively folded SOD1 (SOD1 in PBS) (Homo sapiens (Human)) (UniProt P00441); experiment: ELISA mean
[52] = target: DSE-2-BSA antigen (human); experiment: indirect ELISA Exp #2
[53] = target: denatured or misfolded SOD1 (SOD1 in denaturation buffer with 6M GdnHCl) (Homo sapiens (Human)) (UniProt P00441); experiment: ELISA rep1
BSA control in PBS [54] = target: BSA control in PBS (UniProt P02769); experiment: ELISA rep1
BSA control in GdnHCl [55] = target: BSA control in GdnHCl (UniProt P02769); experiment: ELISA rep1
[56] = target: natively folded SOD1 (SOD1 in PBS) (Homo sapiens (Human)) (UniProt P00441); experiment: ELISA rep1
[57] = target: DSE-2-BSA antigen (human); experiment: indirect ELISA Exp #1
[58] = target: denatured or misfolded SOD1 (SOD1 in denaturation buffer with 6M GdnHCl) (Homo sapiens (Human)) (UniProt P00441); experiment: ELISA, unfolded vs natively folded SOD1

Chain of UniProt P02787 (P02787 20-698 limits assumed): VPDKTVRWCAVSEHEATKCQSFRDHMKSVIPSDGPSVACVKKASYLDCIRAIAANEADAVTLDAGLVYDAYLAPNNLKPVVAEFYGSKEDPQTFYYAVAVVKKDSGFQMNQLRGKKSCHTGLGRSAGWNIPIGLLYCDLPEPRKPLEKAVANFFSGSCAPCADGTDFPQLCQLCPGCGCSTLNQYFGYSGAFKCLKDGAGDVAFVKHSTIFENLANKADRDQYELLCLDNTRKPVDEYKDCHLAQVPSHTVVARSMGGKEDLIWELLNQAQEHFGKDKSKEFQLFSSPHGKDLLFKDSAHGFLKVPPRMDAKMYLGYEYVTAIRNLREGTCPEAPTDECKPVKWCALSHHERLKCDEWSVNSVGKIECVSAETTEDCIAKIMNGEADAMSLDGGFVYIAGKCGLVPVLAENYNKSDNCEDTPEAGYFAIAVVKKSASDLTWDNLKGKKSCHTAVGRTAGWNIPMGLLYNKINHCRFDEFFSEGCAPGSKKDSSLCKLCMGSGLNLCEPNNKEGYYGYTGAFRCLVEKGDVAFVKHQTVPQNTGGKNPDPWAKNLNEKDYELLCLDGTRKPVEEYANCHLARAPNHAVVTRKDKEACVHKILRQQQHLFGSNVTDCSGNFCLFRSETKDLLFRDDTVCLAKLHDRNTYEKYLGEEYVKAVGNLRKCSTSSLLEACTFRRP

anti-DSE2 IgG mAb clone 10E11C11 (antibody)
absorbance [1]: 0.489
absorbance [2]: 1.04
absorbance (BSA control in PBS [3]): 0.103
absorbance [4]: 0.664
absorbance [5]: 0.836
absorbance [6]: 1.04
absorbance (BSA control in PBS [7]): 0.091
absorbance [8]: 1.25
absorbance [9]: 0.362
absorbance (BSA control in PBS [10]): 0.098
absorbance [11]: 1.02
absorbance [12]: 1.24
absorbance [13]: 0.67
absorbance [14]: 0.781
absorbance [15]: 0.987
absorbance [16]: 0.669
absorbance [17]: 0.84
absorbance [18]: 0.668
absorbance [19]: 0.357
absorbance [20]: 1.23
absorbance [21]: 1.06
absorbance [22]: 0.776
absorbance [23]: 0.851
absorbance [24]: 1.03
absorbance [25]: 0.878
absorbance [26]: 0.473
absorbance [27]: 0.453
absorbance [28]: 1.03
absorbance [29]: 1.08
absorbance [30]: 1.03
absorbance [31]: 0.752
absorbance [32]: 0.369
absorbance [33]: 0.77
absorbance (BSA control in PBS [34]): 0.12
absorbance [35]: 0.476
absorbance [36]: 0.389
absorbance [37]: 1.06
absorbance [38]: 1.24
absorbance [39]: 1.07
absorbance [40]: 1.02

anti-DSE2 hybridoma clone 3H1 (antibody)
absorbance [1]: 0.436
absorbance [2]: 1.38
absorbance (BSA control in PBS [3]): 0.077
absorbance [5]: 0.763
OD450 [41]: 0.081 OD450
absorbance [8]: 2.29
absorbance [9]: 0.335
absorbance (BSA control in PBS [10]): 0.076
OD450 [42]: 2.1 OD450
OD450 (BSA control in PBS [43]): 0.15 OD450
OD450 (BSA control in GdnHCl [44]): 0.162 OD450
OD450 [45]: 0.563 OD450
absorbance [11]: 1.43
absorbance [12]: 2.29
absorbance [13]: 0.527
S-N (U) [46]: 1.99 OD450
S-N (F) [47]: 0.251 OD450
absorbance [15]: 1.49
absorbance [16]: 0.59
absorbance [17]: 0.726
absorbance [18]: 0.558
absorbance [19]: 0.34
absorbance [21]: 1.72
OD450 [48]: 2.15 OD450
OD450 (BSA control in PBS [49]): 0.156 OD450
OD450 (BSA control in GdnHCl [50]): 0.164 OD450
OD450 [51]: 0.41 OD450
OD450 [52]: 1.91 OD450
absorbance [22]: 0.744
absorbance [23]: 0.745
absorbance [24]: 1.51
absorbance [26]: 0.43
absorbance [28]: 1.44
OD450 [53]: 2.19 OD450
OD450 (BSA control in PBS [54]): 0.161 OD450
OD450 (BSA control in GdnHCl [55]): 0.165 OD450
OD450 [56]: 0.257 OD450
absorbance [31]: 0.717
absorbance [32]: 0.338
absorbance [33]: 0.731
absorbance (BSA control in PBS [34]): 0.078
absorbance [35]: 0.425
OD450 [57]: 1.98 OD450
absorbance [37]: 1.62
absorbance [38]: 2.29
U/F [58]: 7.93 fold
absorbance [39]: 1.67
absorbance [40]: 1.59
